Source: article PMC2715020, “Identification, functional characterization and developmental regulation of sesquiterpene synthases from sunflower capitate glandular trichomes” (BMC Plant Biology, 2009)

What was measured:
HaCS (HaTPS2) [1] = target: T1, HaCS (HaTPS2) (Helianthus annuus, UniProt Q4U3F6); experiment: GC-MS of products after incubation with FDP; type: biochemical; set-up: gene CS; N-terminal thioredoxin fusion (E. coli, Ni-NTA; also S. cerevisiae EPY300), and unfused in yeast; settings: thioredoxin fusion, 50 μM FDP, MgCl2 and MnCl2, pH 7.0, 30°C
T1 sequence (Q4U3F6 1-555): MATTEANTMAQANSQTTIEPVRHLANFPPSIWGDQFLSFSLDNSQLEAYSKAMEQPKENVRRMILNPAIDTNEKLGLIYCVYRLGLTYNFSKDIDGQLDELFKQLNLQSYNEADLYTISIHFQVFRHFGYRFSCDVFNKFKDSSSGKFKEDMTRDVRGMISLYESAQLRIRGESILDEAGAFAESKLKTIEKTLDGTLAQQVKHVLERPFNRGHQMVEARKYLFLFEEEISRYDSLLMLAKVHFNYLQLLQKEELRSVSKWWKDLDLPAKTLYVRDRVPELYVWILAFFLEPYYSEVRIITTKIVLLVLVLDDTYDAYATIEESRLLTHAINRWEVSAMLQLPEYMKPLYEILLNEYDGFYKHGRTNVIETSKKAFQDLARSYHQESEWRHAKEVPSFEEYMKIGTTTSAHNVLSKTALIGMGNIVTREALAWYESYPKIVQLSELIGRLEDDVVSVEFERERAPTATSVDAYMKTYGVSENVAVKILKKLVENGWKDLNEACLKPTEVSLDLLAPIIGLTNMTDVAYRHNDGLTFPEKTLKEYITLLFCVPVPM

HaCS (HaTPS2) [2] = target: T1, HaCS (HaTPS2); experiment: GC-MS of dodecane overlay, expression in S. cerevisiae EPY300; type: cell-based; set-up: gene CS; settings: FDP-overproducing yeast; HaCS and thioredoxin-HaCS
purified protein = substrate: CC(C)=CCC/C(C)=C/CC/C(C)=C/CO[P@@](=O)(O)OP(=O)(O)O; experiment: purified protein; type: biochemical, Helianthus annuus; settings: 15 mM MOPSO, 10 mM MgCl2, 1 mM MnCl2, pH 7.0 (assay buffer), 30°C, FPP 0.125 to 30 μM

Molecule | Km (purified protein) | further results
CC(C)=CCC/C(C)=C/CC/C(C)=C/COP(=O)(O)OP(=O)(O)O [FPP] |  | GC-MS of products after incubation with FDP (HaCS (HaTPS2) [1]): in vitro enzyme assay products with substrate FDP showed the presence of the parental mass
CC1=C[C@@H]2C(=C(C)CC[C@H]2C(C)C)CC1 [δ-cadinene] |  | GC-MS of dodecane overlay, expression in S. cerevisiae EPY300 (HaCS (HaTPS2) [2]): One of the two main products was identified as δ-cadinene
HaGAS1 (HaTPS1a; native, thioredoxin removed) (Helianthus annuus) (protein, expressed in E. coli from pET-32 EK/LIC, thioredoxin part removed by enterokinase) MAAVGASATPLTNTKSTAEPVRPVANFPPSVWGDLFLSFSLDKSIMEEYAEAMEEPKEQVRRLILDPTMDSNKKLSLIYTVHRLGLTYMFLKEIEAQLDRLFKEFNLEDYVELDLYTISINFQAFRHLGYKLPCDVFNKFKNDDSTTFKESITGDVRGMLGLYESAQLRLKGENILDEASAFAETKLKSLVNTLEGSLAQQVKQSLRRPFHQGMPMVEARLYFSNYQEECSAHDSILKLAKLHFNYLQLQQKEELRIVSQWWKDMRFQETTPYIRDRVPEIYLWILGLYFEPRYSLARIIATKITLFLVVLDDTYDAYATIEEIRLLTDAINRWDISAMNQIPEYIRPFYKILLDEYAELEKQLAKEGRANSVIASKEAFQDIARGYLEEAEWTNSGYVASFPEYMKNGLITSAYNVISKSALVGMGEIVSEDALVWYESHPQILQASELISRLQDDVMTYQFERERGQSATGVDSYIKTYGVSEKVAIDELKKMIENAWKEINEGCLKPREVSMDLLAPILNLARMIDVVYRYDDGFTFPGKTLKEYITLLFVGSSPM | 0.82 µM | 
thioredoxin-HaGAS1 fusion protein (Helianthus annuus) (protein, full length (559 residues) with uncleaved N-terminal thioredoxin and 6x-His tag (pET-32 EK/LIC), E. coli, Ni-NTA purified) MAAVGASATPLTNTKSTAEPVRPVANFPPSVWGDLFLSFSLDKSIMEEYAEAMEEPKEQVRRLILDPTMDSNKKLSLIYTVHRLGLTYMFLKEIEAQLDRLFKEFNLEDYVELDLYTISINFQAFRHLGYKLPCDVFNKFKNDDSTTFKESITGDVRGMLGLYESAQLRLKGENILDEASAFAETKLKSLVNTLEGSLAQQVKQSLRRPFHQGMPMVEARLYFSNYQEECSAHDSILKLAKLHFNYLQLQQKEELRIVSQWWKDMRFQETTPYIRDRVPEIYLWILGLYFEPRYSLARIIATKITLFLVVLDDTYDAYATIEEIRLLTDAINRWDISAMNQIPEYIRPFYKILLDEYAELEKQLAKEGRANSVIASKEAFQDIARGYLEEAEWTNSGYVASFPEYMKNGLITSAYNVISKSALVGMGEIVSEDALVWYESHPQILQASELISRLQDDVMTYQFERERGQSATGVDSYIKTYGVSEKVAIDELKKMIENAWKEINEGCLKPREVSMDLLAPILNLARMIDVVYRYDDGFTFPGKTLKEYITLLFVGSSPM | 1.06 µM | 
HaGAS2 (HaTPS1b; native, thioredoxin removed) (Helianthus annuus) (protein, full length, 559 residues; expressed in E. coli from pET-32 EK/LIC, thioredoxin part removed by enterokinase) MAAVGASATLLTNTKSAEEPVRPVANFPPSVWGDLFLSFSLDNSMMEEYAEAMEEPKGQVRKLILDPTMDSNKKLSLIYTVHRLGLTYMFFKEIEGQLDRLFKEFNLEDYVEVDLYTISTNFQAFRHLGYKLSCDVFNKFKNYDSNTFKESITSDVRGMLGLYESAQLRLKGEKILDEASAFTETKLKSLVKTLEGSLAQQVKQSLKRPFHQGMPMVEARLYFSNYQEECSRHDSLLKLAKLHFNYLQLQQKEELRIVSQWWKDMRFQETTPYIRDRVPEIYLWILGLYFEPRYSLARIIATKITLFLVVLDDTYDAYATIEEVRLLTDAINRWDIGAMSQIPEYIRPFYKILLDEYAELEKQLAKEGRANSVIASKEAFQDIARGYLEEAEWTNSGYVASFPEYMKNGLITSAYNVISKSALVGMGEIVSEDALAWYESHPQILQASELISRLQDDVMTYQFERERGQSATGVDAYIKTYGVSEKEAIDELKKMIENAWKEINEGCLKPREVSMDLLAPILNLARMIDVVYRYDDGFTFPGKTLKEYITLLFVGSSPM | 0.74 µM | 
